According to the supplement of paper PMC11246515:
± gives the standard deviation of the averaged measurements.

Assay: total protein half-life in vivo (active degradation + dilution); higher = more stable protein
[1] = E. coli NCM3722 delta-hslV, growth: N-lim chemostat, doubling time 6 h
[2] = wild type E. coli NCM3722, growth: C-lim chemostat, doubling time 3 h
[3] = E. coli NCM3722 delta-clpP delta-lon delta-hslV, growth: N-lim chemostat, doubling time 6 h
[4] = E. coli NCM3722 delta-clpP, growth: N-lim chemostat, doubling time 6 h
[5] = E. coli NCM3722 delta-lon, growth: N-lim chemostat, doubling time 6 h
[6] = E. coli NCM3722 delta-smpB, growth: N-lim chemostat, doubling time 6 h
[7] = wild type E. coli NCM3722, growth: C-lim chemostat, doubling time 6 h
[8] = wild type E. coli NCM3722, growth: C-lim chemostat, doubling time 12 h
[9] = wild type E. coli NCM3722, growth: N-lim chemostat, doubling time 6 h
[10] = wild type E. coli NCM3722, growth: N-lim chemostat, doubling time 12 h
[11] = wild type E. coli NCM3722, growth: P-lim chemostat, doubling time 6 h
[12] = wild type E. coli NCM3722, growth: P-lim chemostat, doubling time 12 h

MKKIGVAGLQREQIKKTIEATAPGCFEVFIHNDMEAAMKVKSGQLDYYIGACNTGAGAALSIAIAVIGYNKSCTIAKPGIKAKDEHIAKMIAEGKVAFGLSVEHVEHAIPMLINHLK
total protein half-life in vivo [1]: 4.29 h | total protein half-life in vivo [2]: 3.02 h

MKKIGVILSGCGVYDGSEIHEAVLTLLAISRSGAQAVCFAPDKQQVDVINHLTGEAMTETRNVLIEAARITRGEIRPLAQADAAELDALIVPGGFGAAKNLSNFASLGSECTVDRELKALAQAMHQAGKPLGFMCIAPAMLPKIFDFPLRLTIGTDIDTAEVLEEMGAEHVPCPVDDIVVDEDNKIVTTPAYMLAQNIAEAASGIDKLVSRVLVLAE [P0ABU5]
total protein half-life in vivo [3]: 5.23 ± 0.27 h | total protein half-life in vivo [4]: 4.46 ± 0.24 h | total protein half-life in vivo [1]: 4.76 ± 0.49 h | total protein half-life in vivo [5]: 5.05 ± 0.41 h | total protein half-life in vivo [6]: 4.5 ± 0.09 h | total protein half-life in vivo [7]: 6.9 ± 1.3 h | total protein half-life in vivo [8]: 10.8 ± 0.44 h | total protein half-life in vivo [9]: 4.79 ± 0.54 h | total protein half-life in vivo [10]: 7.44 ± 0.33 h | total protein half-life in vivo [11]: 5.67 ± 0.31 h | total protein half-life in vivo [12]: 13.4 ± 0.84 h

MKKIIETQRAPGAIGPYVQGVDLGSMVFTSGQIPVCPQTGEIPADVQDQARLSLENVKAIVVAAGLSVGDIIKMTVFITDLNDFATINEVYKQFFDEHQATYPTRSCVQVARLPKDVKLEIEAIAVRSA [P0AGL2]
total protein half-life in vivo [1]: 4.94 ± 0.13 h | total protein half-life in vivo [5]: 5.08 ± 0.99 h | total protein half-life in vivo [6]: 3.9 h | total protein half-life in vivo [2]: 2.79 h | total protein half-life in vivo [7]: 5.42 h | total protein half-life in vivo [8]: 9.66 ± 1.9 h | total protein half-life in vivo [10]: 7.12 h | total protein half-life in vivo [11]: 6.2 h | total protein half-life in vivo [12]: 10.6 ± 0.78 h

MKKILLMLSLLFFTTAGFSEVSDTLVTGGYDKQAMSDAIKHARKETDKFIEVMNKKDADTFAVKAPITDHGRTEHFWLTDVTYSNGMFIGVISNDPGIVTNVEYGQEWKIKKEDISDWMYTRGDKIYGGYTIDPLLVTYPKEEADELRAKLVR
total protein half-life in vivo [3]: 3.76 h | total protein half-life in vivo [4]: 4.8 h | total protein half-life in vivo [1]: 4.78 ± 1.5 h | total protein half-life in vivo [5]: 5.28 h | total protein half-life in vivo [6]: 4.01 ± 0.41 h | total protein half-life in vivo [2]: 2.2 h | total protein half-life in vivo [7]: 5.15 ± 0.19 h | total protein half-life in vivo [8]: 6.65 h | total protein half-life in vivo [9]: 4.65 h | total protein half-life in vivo [10]: 7.64 h | total protein half-life in vivo [11]: 3.47 ± 0.23 h | total protein half-life in vivo [12]: 5.28 ± 1.1 h

MKKIWLALAGLVLAFSASAAQYEDGKQYTTLEKPVAGAPQVLEFFSFFCPHCYQFEEVLHISDNVKKKLPEGVKMTKYHVNFMGGDLGKDLTQAWAVAMALGVEDKVTVPLFEGVQKTQTIRSASDIRDVFINAGIKGEEYDAAWNSFVVKSLVAQQEKAAADVQLRGVPAMFVNGKYQLNPQGMDTSNMDVFVQQYADTVKYLSEKK [P0AEG4]
total protein half-life in vivo [3]: 5.32 ± 0.12 h | total protein half-life in vivo [4]: 5.05 ± 0.36 h | total protein half-life in vivo [1]: 6.08 ± 0.13 h | total protein half-life in vivo [5]: 6.83 ± 0.3 h | total protein half-life in vivo [6]: 6.24 ± 0.57 h | total protein half-life in vivo [2]: 3.03 ± 0.28 h | total protein half-life in vivo [7]: 5.32 ± 0.28 h | total protein half-life in vivo [8]: 8.77 ± 2.3 h | total protein half-life in vivo [9]: 5.73 ± 0.14 h | total protein half-life in vivo [10]: 11.62 ± 0.096 h | total protein half-life in vivo [11]: 5.665 ± 0.0088 h | total protein half-life in vivo [12]: 11.5 ± 1 h
